Experimental data as given in publication PMC7908025 (ACS Central Science, 2021).

Experiments:
[1] = target: porcine N-acyl-D-glucosamine 2-epimerase (AGE) (Sus scrofa, UniProt P17560); type: biochemical; settings: 35 °C, 48 h
[2] = target: PmST1 (Pasteurella multocida, UniProt Q15KI8); type: biochemical
[3] = tested on: CC(=O)N[C@H]1[C@H]([C@H](F)[C@H](O)CO)O[C@@](O[C@H]2[C@@H](O)[C@@H](CO)O[C@@H](Oc3ccc4c(C)cc(=O)oc4c3)[C@@H]2O)(C(=O)O)C[C@@H]1O; test: purified protein
[4] = tested on: CC(=O)N[C@H]1[C@H]([C@H](O)[C@H](O)CO)O[C@](OP(=O)(O)OC[C@H]2O[C@@H](n3ccc(N)nc3=O)[C@H](O)[C@@H]2O)(C(=O)O)C[C@@H]1O; test: purified protein

Chain of porcine N-acyl-D-glucosamine 2-epimerase (AGE) (P17560 whole entry): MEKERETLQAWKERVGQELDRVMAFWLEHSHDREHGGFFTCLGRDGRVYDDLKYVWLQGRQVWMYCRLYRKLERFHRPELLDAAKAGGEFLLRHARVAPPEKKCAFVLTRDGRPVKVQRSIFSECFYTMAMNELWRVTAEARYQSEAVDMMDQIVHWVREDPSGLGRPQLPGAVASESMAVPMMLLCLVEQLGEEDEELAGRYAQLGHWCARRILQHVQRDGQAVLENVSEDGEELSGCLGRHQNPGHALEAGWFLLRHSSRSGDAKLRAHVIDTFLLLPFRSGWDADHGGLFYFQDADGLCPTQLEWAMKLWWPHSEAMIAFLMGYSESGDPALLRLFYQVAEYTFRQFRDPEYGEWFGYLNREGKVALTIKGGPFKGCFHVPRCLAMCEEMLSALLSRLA

Compound: CC(=O)N[C@H]1C(O)O[C@H](CO)[C@H](F)[C@@H]1O (stereo partly drawn) [compound 2, 4-deoxy-4-fluoro-GalNAc]
- one-pot epimerase/aldolase conversion, 19F NMR [1]: the epimerase was converting the GalNAc starting material

Compound: CC(=O)N[C@H]1[C@H]([C@H](O)[C@H](O)CO)O[C@](OP(=O)(O)OC[C@H]2O[C@@H](n3ccc(N)nc3=O)[C@H](O)[C@@H]2O)(C(=O)O)C[C@@H]1O [compound 9, CMP-7OHSA]
- Km [2]: 89 µM

Compound: (Micromonospora viridifaciens)
- Km [3]: 1.2 (±0.15) mM
- kcat/Km [3]: 2250 ± 1000 M⁻¹ s⁻¹

Compound: (Photobacterium sp. JT-ISH-224)
- Km [4]: 70 (±1) μM
- kcat/Km [4]: 656000 M⁻¹ s⁻¹
